From publication PMC10786891, “Massively parallel profiling of RNA-targeting CRISPR-Cas13d”

T1: EsCas13d, nuclease-dead (Eubacterium siraeum, UniProt B0MS50, R295A;H300A;R849A;H854A)
T1 sequence: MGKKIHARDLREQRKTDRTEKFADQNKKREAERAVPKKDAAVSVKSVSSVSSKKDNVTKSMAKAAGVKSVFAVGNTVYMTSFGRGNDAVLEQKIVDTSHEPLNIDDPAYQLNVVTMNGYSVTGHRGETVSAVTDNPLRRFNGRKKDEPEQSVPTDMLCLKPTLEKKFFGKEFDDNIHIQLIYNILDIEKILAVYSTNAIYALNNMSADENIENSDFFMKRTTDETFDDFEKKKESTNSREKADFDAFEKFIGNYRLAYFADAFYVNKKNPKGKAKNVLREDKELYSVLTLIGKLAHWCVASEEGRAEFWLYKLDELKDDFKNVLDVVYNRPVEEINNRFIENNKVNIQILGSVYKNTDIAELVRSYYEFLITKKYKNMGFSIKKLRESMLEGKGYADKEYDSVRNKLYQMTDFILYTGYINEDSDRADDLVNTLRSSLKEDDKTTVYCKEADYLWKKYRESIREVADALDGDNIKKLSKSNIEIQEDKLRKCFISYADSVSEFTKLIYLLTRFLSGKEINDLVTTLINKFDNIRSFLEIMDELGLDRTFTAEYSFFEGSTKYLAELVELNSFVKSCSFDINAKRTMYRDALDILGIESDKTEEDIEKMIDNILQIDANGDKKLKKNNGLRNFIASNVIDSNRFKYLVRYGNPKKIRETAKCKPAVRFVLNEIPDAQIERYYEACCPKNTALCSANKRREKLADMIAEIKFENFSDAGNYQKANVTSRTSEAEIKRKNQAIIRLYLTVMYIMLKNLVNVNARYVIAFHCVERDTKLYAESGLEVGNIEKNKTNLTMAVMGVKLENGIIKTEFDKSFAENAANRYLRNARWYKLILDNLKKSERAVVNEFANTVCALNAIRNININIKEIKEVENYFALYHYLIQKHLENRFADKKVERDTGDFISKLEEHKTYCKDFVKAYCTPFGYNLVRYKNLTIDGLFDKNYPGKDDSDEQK


molecular target: T1, EsCas13d, nuclease-dead; experiment: crRNA (strand 1, pre-loaded); Mg2+; 40 mM Tris-HCl pH 7.5, 150 mM NaCl, 6 mM MgCl2, 1 mM DTT, 0.1% Tween-20, 0.2 mg/ml BSA; 25 C; 10 min per concentration, then washed; details: tags: His6-TwinStrep-SUMO cleaved; N-terminal SNAP kept (SNAP-Surface 488); label: 3' end held by stalled T7 RNA polymerase

| Binder | Kd |
| --- | --- |
| target 1 C2U,A9U (mixed) RNA 1: CACCCGUGCAAAAAUGCAGGGGUCUAAAACUGAGCGGAUAACCUCUCUAUGG RNA 2: GGGAAUGGAUCCACAUCUACGAAUUCGUACCAUAGAGAGGUUUUCCGCUUACCGAGAUCGGAAGAGCACACGU | 8.5 ± 0.7 nM |
| target 2 MT 5'PFS CUC 3'PFS AGG (mixed) RNA 1: CACCCGUGCAAAAUUGCAGGGGUCUAAAACCUUCUCCAAAUUGUUUCAUCCU RNA 2: GGGAAUGGAUCCACAUCUACGAAUUCCUCAGGAUGAAACAAUUUGGAGAAGAGGAGAUCGGAAGAGCACACGU | 2.8 ± 0.5 nM |
| target 2 MT 5'PFS UAU 3'PFS GGC (mixed) RNA 1: CACCCGUGCAAAAUUGCAGGGGUCUAAAACCUUCUCCAAAUUGUUUCAUCCU RNA 2: GGGAAUGGAUCCACAUCUACGAAUUCUAUAGGAUGAAACAAUUUGGAGAAGGGCAGAUCGGAAGAGCACACGU | 44 ± 12 nM |
| target 2 MT 5'PFS ACU 3'PFS UAG (mixed) RNA 1: CACCCGUGCAAAAUUGCAGGGGUCUAAAACCUUCUCCAAAUUGUUUCAUCCU RNA 2: GGGAAUGGAUCCACAUCUACGAAUUCACUAGGAUGAAACAAUUUGGAGAAGUAGAGAUCGGAAGAGCACACGU | 3.5 ± 0.4 nM |
| target 2 MT 5'PFS UCU 3'PFS ACU (mixed) RNA 1: CACCCGUGCAAAAUUGCAGGGGUCUAAAACCUUCUCCAAAUUGUUUCAUCCU RNA 2: GGGAAUGGAUCCACAUCUACGAAUUCUCUAGGAUGAAACAAUUUGGAGAAGACUAGAUCGGAAGAGCACACGU | 9.4 ± 1.8 nM |
| target 2 MT 5'PFS ACU 3'PFS UAA (mixed) RNA 1: CACCCGUGCAAAAUUGCAGGGGUCUAAAACCUUCUCCAAAUUGUUUCAUCCU RNA 2: GGGAAUGGAUCCACAUCUACGAAUUCACUAGGAUGAAACAAUUUGGAGAAGUAAAGAUCGGAAGAGCACACGU | 4 ± 0.9 nM |
| target 2 MT 5'PFS ACU 3'PFS UAU (mixed) RNA 1: CACCCGUGCAAAAUUGCAGGGGUCUAAAACCUUCUCCAAAUUGUUUCAUCCU RNA 2: GGGAAUGGAUCCACAUCUACGAAUUCACUAGGAUGAAACAAUUUGGAGAAGUAUAGAUCGGAAGAGCACACGU | 3.8 ± 0.6 nM |
| target 2 MT 5'PFS ACU 3'PFS UAC (mixed) RNA 1: CACCCGUGCAAAAUUGCAGGGGUCUAAAACCUUCUCCAAAUUGUUUCAUCCU RNA 2: GGGAAUGGAUCCACAUCUACGAAUUCACUAGGAUGAAACAAUUUGGAGAAGUACAGAUCGGAAGAGCACACGU | 6.2 ± 0.9 nM |
| target 2 MT 5'PFS GUA 3'PFS GCG (mixed) RNA 1: CACCCGUGCAAAAUUGCAGGGGUCUAAAACCUUCUCCAAAUUGUUUCAUCCU RNA 2: GGGAAUGGAUCCACAUCUACGAAUUCGUAAGGAUGAAACAAUUUGGAGAAGGCGAGAUCGGAAGAGCACACGU | 6.7 ± 0.6 nM |
| target 2 MT 5'PFS GGC 3'PFS ACA (mixed) RNA 1: CACCCGUGCAAAAUUGCAGGGGUCUAAAACCUUCUCCAAAUUGUUUCAUCCU RNA 2: GGGAAUGGAUCCACAUCUACGAAUUCGGCAGGAUGAAACAAUUUGGAGAAGACAAGAUCGGAAGAGCACACGU | 18 ± 4 nM |
| target 2 MT 5'PFS GUA 3'PFS GCC (mixed) RNA 1: CACCCGUGCAAAAUUGCAGGGGUCUAAAACCUUCUCCAAAUUGUUUCAUCCU RNA 2: GGGAAUGGAUCCACAUCUACGAAUUCGUAAGGAUGAAACAAUUUGGAGAAGGCCAGAUCGGAAGAGCACACGU | 6.4 ± 1.5 nM |
| target 2 MT 5'PFS GGC 3'PFS ACG (mixed) RNA 1: CACCCGUGCAAAAUUGCAGGGGUCUAAAACCUUCUCCAAAUUGUUUCAUCCU RNA 2: GGGAAUGGAUCCACAUCUACGAAUUCGGCAGGAUGAAACAAUUUGGAGAAGACGAGAUCGGAAGAGCACACGU | 15.8 ± 1.1 nM |
| target 2 MT 5'PFS GGC 3'PFS ACU (mixed) RNA 1: CACCCGUGCAAAAUUGCAGGGGUCUAAAACCUUCUCCAAAUUGUUUCAUCCU RNA 2: GGGAAUGGAUCCACAUCUACGAAUUCGGCAGGAUGAAACAAUUUGGAGAAGACUAGAUCGGAAGAGCACACGU | 21.3 ± 2.5 nM |
